Molecular target: SpAB-T7 RNAP

Bamlanivimab (antibody), sequence (VH): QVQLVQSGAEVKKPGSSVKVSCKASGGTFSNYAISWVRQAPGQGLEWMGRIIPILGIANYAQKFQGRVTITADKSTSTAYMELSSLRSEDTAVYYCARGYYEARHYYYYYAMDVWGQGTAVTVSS
Bamlanivimab (antibody), sequence (VL): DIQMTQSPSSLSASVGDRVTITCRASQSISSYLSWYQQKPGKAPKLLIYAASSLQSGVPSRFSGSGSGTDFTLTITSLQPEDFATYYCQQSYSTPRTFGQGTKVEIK

Work on Bamlanivimab (antibody) yielded an MDC (minimal detectable concentration of Bamlanivimab in the ZF-RBD / SpAB-T7 RNAP sensor, 2.5% human serum) of 12.7 nM.
